This note sets out measurements from US12006368 (SURROZEN OPERATING, dated 2024).

For assay [1], the target named is T1, Fzd1 cysteine rich domain (CRD), C-terminally biotinylated (human, UniProt Q9UP38 101-230). The experiment in a line: BLI. Here is the method: Binding kinetics of antibody fragments to a variety of Fzd cysteine rich domain (CRD) protein targets (Fzd1, Fzd2, Fzd3, Fzd4, Fzd5, Fzd6, Fzd7, Fzd8, Fzd9 and/or Fzd10 CRDs) was determined by bio-layer interferometry (BLI) using Octet Red 96 (PALL ForteBio, Fremont, CA) instruments at 30° C., 1000 rpm with streptavidin (SA) biosensors. C-terminal biotinylated Fzd CRD recombinant protein was diluted to 20 nM in the running buffer (PBS, 0.05% Tween-20, 0.5% BSA, pH 7.2) and captured to the SA biosensor until coupling length reached 0.2 nm. Following capture of the Fzd CRD, the SA biosensor with captured biotinylated-Fzd CRD was dipped into wells containing the relevant antibody fragment at […] (0, 1.37, 4.12, 12.4, 37, 111.1, 333.3, 1000 nM) in running buffer, plus a well with only running buffer as a reference channel. […] was determined by global fitting, 1:1 binding model according to manufacturer recommended settings.
One antibody fragment, clone 001S-A04, was selected for alanine-scanning mutagenesis of CDRs, and the respective Fzd1 binding affinities of the various mutants were determined by Octet BLI as described in Example 1.
A general note: In BLI a coated tip is dipped into the sample, and binding shifts an interference pattern.

In assay [2] the target is T1, Fzd1 cysteine rich domain (CRD), …. The experiment in a line: summary in Table 3; method not given there.
Assay [3] deals with Fzd7 cysteine rich domain (CRD), C-terminally biotinylated (human, UniProt O75084 36-165). Briefly: summary in Table 3; method not given there.

B1: 001S-A04 mutant VHY8A (Fab, V domains shown)
VH: EVQLVQSGAEVKKPGASVKVSCKASGYTFTSYGISWVRQAPGQGLEWMGWISAYNGNTNYAQKLQGRVTMTTDTSTSTAYMELRSLRSDDTAVYYCASSKEKATYAYGMDVWGQGTTVTVSS
VL: QAVVLQEPSLSVSPGGTVTLTCGLSSGSVSTNYYPSWYQQTPGQAPRTLIYYTNTRSSDVPERFSGSIVGNKAALTITGAQPDDESVYFCLLYLGRGIWVFGGGTKLTVLG
For B1, the binding result in assay [1] is on record as “no binding (tested: 1000 nM)”.

B2: R2M9 (003S-E07) Fab (Fab, V domains shown)
VH: QVQLVQSGAEVKKPGSSVKVSCKASGYTFTNNFMHWVRQAPGQGLEWMGWINPNSGGTKYAQKFQGRVTITADESTSTAYMELSSLRSEDTAVYYCARSVGEVGATMLGIGVWYWFDPWGQGTLVTVSS
VL: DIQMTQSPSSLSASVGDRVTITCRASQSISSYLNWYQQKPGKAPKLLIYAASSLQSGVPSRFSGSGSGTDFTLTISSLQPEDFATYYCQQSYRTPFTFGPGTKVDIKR
notes: heavy chain entry ends in GSGSG-His6
Regarding B2, the binding result in assay [2] and in assay [3] was “binds” throughout.
